Results: the supplement of paper PMC11865577

What was measured:
Assay in all cases: pull-down binding Z-score (relative to library population); higher = stronger binding
[1] = test system: G-clamp-N3 (biotin conjugate); settings: RNA library: Library-1 (pre-miRNA loops + repeats)
How it was run: (§1)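 The RNA library, end-labelled with Cy5 or Cy3, was heat-folded in phosphate/NaCl/KCl buffer, and 1 μg was incubated at 25 °C for 60 min with streptavidin beads carrying 100 pmol of biotin-conjugated small molecule. Hot SDS released the bound RNA, which was then hybridised to a DNA barcode microarray for 20 h at 55.5 °C. For scoring binding, signal from beads alone was subtracted, replicate barcoded probes were averaged after discarding the highest and lowest, and each value was turned into a Z-score from the library mean and standard deviation.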

[2] = test system: TO-3-N3 (biotin conjugate); settings: RNA library: Library-2
How it was run: as §1

[3] = test system: TO-3-N3-2 (biotin conjugate); settings: RNA library: Library-2
How it was run: as §1

[4] = test system: TO-N3 (biotin conjugate); settings: RNA library: Library-2
How it was run: as §1

[5] = test system: TO-N3-2 (biotin conjugate); settings: RNA library: Library-2
How it was run: as §1

| Sequence | pull-down binding Z-score [1] | pull-down binding Z-score [2] | pull-down binding Z-score [3] | pull-down binding Z-score [4] | pull-down binding Z-score [5] |
| --- | --- | --- | --- | --- | --- |
| UUUGUCAUUACUUUAAUUACUUUACGUUUCAUUAAUGACAAA [hsa-mir-548h-4] | -0.754 | -1.23 | -0.563 | -1.43 | -1.46 |
| UUUGUCAUUUAAAAGUAAUGGCAAA [hsa-mir-548ae-2] | 0.815 | 0.207 | 0.00258 | -0.203 | -0.902 |
| UUUGUGGAUUUUGAAAAGGUGCAGG [hsa-mir-15a] | 1.81 | -0.119 | 0.66 | 0.277 | 0.28 |
| UUUGUGGGGCGAGGAGGGACCUGUACUAGCCAUGGUUCUGAUCACAUAUG [hsa-mir-6834] | 0.432 | 3.06 | 2.72 | 3.83 | 2.89 |
| UUUGUGUAAGGAAUUUUGUGGUCACAAA [hsa-mir-10a] | 1.29 | -1.06 | -0.175 | -1.25 | -0.825 |
| UUUGUUGAAAGAAUAAAUAAACCAACAAG [hsa-mir-1264] | -0.724 | -0.424 | 0.0773 | -0.367 | -0.365 |
| UUUUAAUUUUUUUAAAA [hsa-mir-3606] | -1.03 | 0.211 | -0.175 | -0.183 | -1.39 |
| UUUUAGAA [hsa-mir-4443] | -1.3 | -0.568 | -0.535 | -0.913 | -1.35 |
| UUUUAUCAUUACUUUUAAUGGCAAAA [hsa-mir-548f-2] | 0.854 | 1.12 | 0.834 | 0.761 | -0.404 |
| UUUUCAGUUCCUGAGAUC [hsa-mir-4287] | -1.15 | -0.0736 | -0.202 | -0.128 | -0.441 |
| UUUUCAUGACAACCCUAUAUGGGAAAAUGUUGUGAAAA [hsa-mir-3646] | -0.346 | -0.839 | -0.448 | -1.1 | -1.78 |
| UUUUCCCUUUCUCUUGCCCUGAAA [hsa-mir-4509-1_4509-3_4509-2] | -1 | -0.261 | -0.096 | -0.332 | -0.219 |
| UUUUCCUGAGAAUAAGAGAAGGAAGG [hsa-mir-4455] | -0.563 | -0.477 | -0.0611 | 0.0683 | 0.75 |
| UUUUCGCUUUAUAUGUGACGAAAC [hsa-mir-495] | 0.0902 | -0.605 | 0.125 | -0.787 | -0.531 |
| UUUUCUGGGA [hsa-mir-4456] | -0.606 | -0.426 | -0.103 | -0.484 | -0.251 |
| UUUUCUGUCCUGUCCACACAGAAAA [hsa-mir-1537] | -1 | -0.957 | -0.517 | -1.27 | -0.902 |
| UUUUCUUAAAUUGUAUAAAGAGAAAU [hsa-mir-944] | -0.343 | -0.406 | -0.156 | -0.741 | -0.622 |
| UUUUGAAAGUAACUUGGCGAAA [hsa-mir-548ad] | 1.69 | -0.179 | -0.118 | -0.0602 | -0.299 |

| Sequence | pull-down binding Z-score [1] | pull-down binding Z-score [2] | pull-down binding Z-score [3] | pull-down binding Z-score [4] | pull-down binding Z-score [5] |
| --- | --- | --- | --- | --- | --- |
| UUUUGACAUUACUUUCAAAGACAAAA [hsa-mir-548f-1] | -1.58 | -0.771 | -0.214 | -1.09 | -1.23 |
| UUUUGCAAUUUUUUAAUGACAAAA [hsa-mir-548t] | -0.195 | -0.494 | -0.334 | -0.585 | -0.704 |
| UUUUGCAGUUGAAAGUAAUGGCAAAG [hsa-mir-548ao] | 2.64 | -0.235 | 0.00731 | -0.0635 | 0.259 |
| UUUUGCAGUUUUUUUAAGUAAUUGCAAAA [hsa-mir-548f-3] | 0.0351 | -0.492 | -0.385 | -0.812 | -0.904 |
| UUUUGCAUUUAAAGUAAUGGCCAAA [hsa-mir-548ay] | 2.31 | -0.735 | -0.285 | -0.77 | -0.173 |
| UUUUGCCAUUAAAAGUAAUGACAAAA [hsa-mir-548f-4] | -0.841 | -0.924 | -0.56 | -1.47 | -1.66 |
| UUUUGCCAUUACUUUCAAUGGCAAAA [hsa-mir-548aa-2] | -0.284 | 0.127 | -0.23 | -0.176 | -1.08 |
| UUUUGCCAUUACUUUUACAGGCAAAA [hsa-mir-548aa-1] | -0.445 | -0.497 | -0.412 | -0.991 | -1.28 |
| UUUUGCUAUUACUUUUAAAGGCAAAA [hsa-mir-548e] | -0.666 | 0.431 | 0.21 | -0.0747 | -0.684 |
| UUUUGCUGUUACUUUUAAUGGCAAAA [hsa-mir-548az] | -0.982 | -0.418 | -0.34 | -0.752 | -1.3 |
| UUUUGCUUGUGUCUCUCCGCUCUGAGCAAUC [hsa-mir-96] | -0.253 | 0.441 | -0.0864 | 0.528 | 0.411 |
| UUUUGUCUGA [hsa-mir-553] | -1.4 | -0.414 | -0.242 | -0.549 | -0.491 |
| UUUUUCCAUUGUAAGUAAUGGGAAAA [hsa-mir-548f-5] | 0.457 | -0.644 | -0.567 | -0.991 | -1.67 |
| UUUUUCUUUACUUUUAAUGGCAAA [hsa-mir-548u] | 0.72 | -1.03 | -0.338 | -1.35 | -1.2 |
| UUUUUGCAUUACGUUCUAUGGCAAAA [hsa-mir-548g] | 1.18 | -0.297 | -0.00229 | -0.182 | -0.0583 |
| UUUUUGUUUUUGAGACAGAGU [hsa-mir-4472-2] | -0.943 | 0.455 | 0.0401 | 0.274 | -0.803 |
| UUUUUUUCCAAUGAAAAUAACGAAACCUGUUAUUUCCCAUUGAGGGGGAAAAA [hsa-mir-4484] | 0.398 | -1.12 | -0.221 | -1.15 | -0.641 |
| UUUUUUUCGCUUUAUUUGUGACGAAAC [hsa-mir-543] | -0.305 | -0.674 | -0.278 | -0.856 | -0.882 |
